Test results: patent publication US5866544A, “Peptide-chelator conjugates” (Resolution Pharmaceuticals, Inc., priority 1997, dated 1999)
Where no end group is shown, it is not given here. The star is where a group is joined. Bz‑MA = benzoylmercaptoacetyl chelator, O=C(SCC(=O)*)c1ccccc1; Picolinoyl = O=C(c1ccccn1)*; Acm = CC(=O)NC*

Experiments:
[1] = tested on: rat inflammation model (E. coli, left hindleg); experiment: Biodistribution and imaging of Tc-99m labelled conjugates in a rat inflammation model; settings: for Blood / Urine / G.I. tract: Tc-99m labelled conjugate i.v.; for inflam muscle: inflamed muscle (left leg); for Uninfl muscle: non-inflamed muscle (right leg); for Inflam:Uninfl: ratio inflamed to uninflamed muscle
[2] = in vivo; cited from earlier work

## Bz-MA-Ser-Cys-Ser-Gly-Asp-Gly-TKPPR ({Bz‑MA}-SCSGDGTKPPR) [BzMASerCys SGDG- TKPPR]
[1]; Time 35 min
  Blood: 0.483 % dose/g
  Urine: 47.8
  inflam muscle: 0.226 % dose/g
  Uninfl muscle: 0.057 % dose/g
  Inflam:Uninfl: 4.0

## Pic-Ser-Cys(Acm)-Gly-Asp-Gly-TKPPR (Picolinoyl-SC(Acm)GDGTKPPR) [PicSerCys(Acm) GDG TKPPR]
[1]; Time 35 min
  Blood: 0.228 % dose/g
  Urine: 63.1
  inflam muscle: 0.166 % dose/g
  Uninfl muscle: 0.034 % dose/g
  Inflam:Uninfl: 4.9

## Pic-Ser-Cys(Acm)-Gly-TKPPR (Picolinoyl-SC(Acm)GTKPPR) [PicSerCys(Acm) Gly TKPPR]
[1]; Time 30 min
  Blood: 0.392 % dose/g
  G.I. tract: 5.08
  Urine: 44.71
  inflam muscle: 0.154 % dose/g
  Uninfl muscle: 0.052 % dose/g
  Inflam:Uninfl: 3.6
[1]; Time 180 min
  Blood: 0.048 % dose/g
  G.I. tract: 3.71
  Urine: 80.62
  inflam muscle: 0.026 % dose/g
  Uninfl muscle: 0.006 % dose/g
  Inflam:Uninfl: 4.7

## PicSerCys(Acm) Gly KPPR: chelator PicSerCys(Acm), linking group Gly, peptide KPPR (Seq ID no: 9); comparison conjugate ({Picolinoyl-Ser-Cys(Acm)}-GKPPR)
[1]; Time 45 min
  Blood: 0.220 % dose/g
  Urine: 43.5
  inflam muscle: 0.125 % dose/g
  Uninfl muscle: 0.059 % dose/g
  Inflam:Uninfl: 2.1

## PicSerCys(Acm) Gly RTKPR: chelator PicSerCys(Acm), linking group Gly, peptide RTKPR (Seq ID no: 11); comparison conjugate ({Picolinoyl-Ser-Cys(Acm)}-GRTKPR)
[1]; Time 35 min
  Blood: 0.169 % dose/g
  G.I. tract: 15.0
  Urine: 45.4
  inflam muscle: 0.099 % dose/g
  Uninfl muscle: 0.033 % dose/g
  Inflam:Uninfl: 3.0

## PicSerCys(Acm) Gly TKPR: chelator PicSerCys(Acm), linking group Gly, native tuftsin peptide TKPR (Seq ID no: 1); comparison conjugate ({Picolinoyl-Ser-Cys(Acm)}-GTKPR)
[1]; Time 35 min
  Blood: 0.268 % dose/g
  G.I. tract: 22.8
  Urine: 22.8
  inflam muscle: 0.120 % dose/g
  Uninfl muscle: 0.040 % dose/g
  Inflam:Uninfl: 3.0

## PicSerCys(Acm) Gly TKPRTKPR: chelator PicSerCys(Acm), linking group Gly, peptide TKPRTKPR (tuftsin dimer, Seq ID no: 10); comparison conjugate ({Picolinoyl-Ser-Cys(Acm)}-GTKPRTKPR)
[1]
  accumulation in blood, in words: low accumulation
  accumulation in the GI tract, in words: low accumulation
  urine levels / clearance into the urine, in words: particularly low urine levels
[1]; Time 35 min
  Blood: 0.136 % dose/g
  G.I. tract: 4.2
  Urine: 16.1
  inflam muscle: 0.071 % dose/g
  Uninfl muscle: 0.022 % dose/g
  Inflam:Uninfl: 3.2

## labelled tuftsin: naturally occurring tetrapeptide tuftsin TKPR (Seq. ID no:1) labelled with a radionuclide metal (also: labelled with a radionuclide metal)
[2]
  accumulation in non-target tissue (gastrointestinal tract), in words: accumulated in the gastrointestinal tract
